Measured values taken from IntAct's records for PubMed 15716268.

B1: NAD-dependent protein deacetylase sirtuin-1 (Mus musculus), Q923E4 (parent)
chain: MADEVALALQAAGSPSAAAAMEAASQPADEPLRKRPRRDGPGLGRSPGEPSAAVAPAAAGCEAASAAAPAALWREAAGAAASAEREAPATAVAGDGDNGSGLRREPRAADDFDDDEGEEEDEAAAAAAAAAIGYRDNLLLTDGLLTNGFHSCESDDDDRTSHASSSDWTPRPRIGPYTFVQQHLMIGTDPRTILKDLLPETIPPPELDDMTLWQIVINILSEPPKRKKRKDINTIEDAVKLLQECKKIIVLTGAGVSVSCGIPDFRSRDGIYARLAVDFPDLPDPQAMFDIEYFRKDPRPFFKFAKEIYPGQFQPSLCHKFIALSDKEGKLLRNYTQNIDTLEQVAGIQRILQCHGSFATASCLICKYKVDCEAVRGDIFNQVVPRCPRCPADEPLAIMKPEIVFFGENLPEQFHRAMKYDKDEVDLLIVIGSSLKVRPVALIPSSIPHEVPQILINREPLPHLHFDVELLGDCDVIINELCHRLGGEYAKLCCNPVKLSEITEKPPRPQKELVHLSELPPTPLHISEDSSSPERTVPQDSSVIATLVDQATNNNVNDLEVSESSCVEEKPQEVQTSRNVENINVENPDFKAVGSSTADKNERTSVAETVRKCWPNRLAKEQISKRLEGNQYLFVPPNRYIFHGAEVYSDSEDDVLSSSSCGSNSDSGTCQSPSLEEPLEDESEIEEFYNGLEDDTERPECAGGSGFGADGGDQEVVNEAIATRQELTDVNYPSDKS
partner: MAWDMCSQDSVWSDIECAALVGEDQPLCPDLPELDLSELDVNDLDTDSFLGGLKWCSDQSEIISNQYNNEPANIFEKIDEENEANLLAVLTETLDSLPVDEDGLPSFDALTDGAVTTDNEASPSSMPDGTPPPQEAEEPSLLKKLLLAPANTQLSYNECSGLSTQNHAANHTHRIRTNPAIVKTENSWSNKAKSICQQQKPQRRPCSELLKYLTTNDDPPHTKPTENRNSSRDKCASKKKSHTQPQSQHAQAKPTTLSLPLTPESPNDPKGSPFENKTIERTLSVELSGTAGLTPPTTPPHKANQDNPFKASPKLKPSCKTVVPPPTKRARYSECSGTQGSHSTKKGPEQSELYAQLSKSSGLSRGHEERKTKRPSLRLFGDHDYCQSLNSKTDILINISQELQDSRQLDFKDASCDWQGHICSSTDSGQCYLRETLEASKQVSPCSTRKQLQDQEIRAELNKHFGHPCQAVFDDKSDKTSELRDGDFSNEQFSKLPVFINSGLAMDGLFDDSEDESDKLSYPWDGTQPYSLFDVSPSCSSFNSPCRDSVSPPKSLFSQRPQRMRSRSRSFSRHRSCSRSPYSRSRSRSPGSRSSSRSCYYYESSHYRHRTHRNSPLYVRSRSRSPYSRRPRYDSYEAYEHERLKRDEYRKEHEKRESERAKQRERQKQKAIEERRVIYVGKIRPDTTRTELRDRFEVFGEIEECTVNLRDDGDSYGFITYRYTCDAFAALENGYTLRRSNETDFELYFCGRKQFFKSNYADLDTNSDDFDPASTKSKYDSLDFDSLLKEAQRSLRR

Variants of: B1
Details: with prgc1_mouse Ppargc1a

effect of a mutation on the interaction | Variant
decreasing interaction | G261A
